Results reported in publication PMC6498860 (Cell, 2019).

Molecular target: histone H4 (Xenopus laevis, UniProt P62799 2-103)
Experiment: cryo-EM structure

B1: Dot1L(2-416) (domain or fragment)
chain: GEKLELRLKSPVGAEPAVYPWPLPVYDKHHDAAHEIIETIRWVCEEIPDLKLAMENYVLIDYDTKSFESMQRLCDKYNRAIDSIHQLWKGTTQPMKLNTRPSTGLLRHILQQVYNHSVTDPEKLNNYEPFSPEVYGETSFDLVAQMIDEIKMTDDDLFVDLGSGVGQVVLQVAAATNCKHHYGVEKADIPAKYAETMDREFRKWMKWYGKKHAEYTLERGDFLSEEWRERIANTSVIFVNNFAFGPEVDHQLKERFANMKEGGRIVSSKPFAPLNFRINSRNLSDIGTIMRVVELSPLKGSVSWTGKPVSYYLHTIDRTILENYFSSLKNPKLREEQEAARRRQQRESKSNAATPTKGPEGKVAGPADAPMDSGAEEEKAGAATVKKPSPSKARKKKLNKKGRKMAGRKRGRPKK
- binding result: binds
